# Laboratory results: US20250171562A1 (ALK ABELL, published 2025)
# B1: CIgG4E1A1(G4S)1 (Fc fusion)
# chain 1: GPPCPPCPAPEFLGGPSVFLFPPKPKDTLMISRTPEVTCVVVDVSQEDPEVQFNWYVDGVEVHNAKTKPREEQFNSTYRVVSVLTVLHQDWLNGKEYKCKVSNKGLPSSIEKTISKAKGQPREPQVYTLPPCQEEMTKNQVSLWCLVKGFYPSDIAVEWESNGQPENNYKTTPPVLDSDGSFFLYSRLTVDKSRWQEGNVFSCSVMHEALHNHYTQKSLSLSLGKGGGGSDVQLQESGGGLVQAGGSLRLSCLASGRTFTTTSGYNMGWFRQAPGKEREFVAGIKWVSGSNRAYAESVKGRFTISRDNAKNTVYLQMNSLKPEDTAVYYCAAATGQSYVPIREYEYVYWGQGTQVTVS
# chain 2: GPPCPPCPAPEFLGGPSVFLFPPKPKDTLMISRTPEVTCVVVDVSQEDPEVQFNWYVDGVEVHNAKTKPREEQFNSTYRVVSVLTVLHQDWLNGKEYKCKVSNKGLPSSIEKTISKAKGQPREPQVCTLPPSQEEMTKNQVSLSCAVKGFYPSDIAVEWESNGQPENNYKTTPPVLDSDGSFFLVSRLTVDKSRWQEGNVFSCSVMHEALHNHYTQKSLSLSLGKGGGGSEVQLLESGGGLVQPGGSLRLSCAASGFTFGNYDMAWVRQAPGKRPEWVSSIDTGGDITHYADSVKGRFTISRDNAKNTLYLQMNSLRPEDTAVYWCATDEEYALGPNEFDYYGQGTLVTVSS
# B2: NIgG4E1A1(G4S)3 (Fc fusion)
# chain 1: DVQLQESGGGLVQAGGSLRLSCLASGRTFTTTSGYNMGWFRQAPGKEREFVAGIKWVSGSNRAYAESVKGRFTISRDNAKNTVYLQMNSLKPEDTAVYYCAAATGQSYVPIREYEYVYWGQGTQVTVSGGGGSGGGGSGGGGSGPPCPPCPAPEFLGGPSVFLFPPKPKDTLMISRTPEVTCVVVDVSQEDPEVQFNWYVDGVEVHNAKTKPREEQFNSTYRVVSVLTVLHQDWLNGKEYKCKVSNKGLPSSIEKTISKAKGQPREPQVYTLPPCQEEMTKNQVSLWCLVKGFYPSDIAVEWESNGQPENNYKTTPPVLDSDGSFFLYSRLTVDKSRWQEGNVFSCSVMHEALHNHYTQKSLSLSLGK
# chain 2: EVQLLESGGGLVQPGGSLRLSCAASGFTFGNYDMAWVRQAPGKRPEWVSSIDTGGDITHYADSVKGRFTISRDNAKNTLYLQMNSLRPEDTAVYWCATDEEYALGPNEFDYYGQGTLVTVSSGGGGSGGGGSGGGGSGPPCPPCPAPEFLGGPSVFLFPPKPKDTLMISRTPEVTCVVVDVSQEDPEVQFNWYVDGVEVHNAKTKPREEQFNSTYRVVSVLTVLHQDWLNGKEYKCKVSNKGLPSSIEKTISKAKGQPREPQVCTLPPSQEEMTKNQVSLSCAVKGFYPSDIAVEWESNGQPENNYKTTPPVLDSDGSFFLVSRLTVDKSRWQEGNVFSCSVMHEALHNHYTQKSLSLSLGK
# B3: NIgG4E1A1(RS) (Fc fusion)
# chain 1: DVQLQESGGGLVQAGGSLRLSCLASGRTFTTTSGYNMGWFRQAPGKEREFVAGIKWVSGSNRAYAESVKGRFTISRDNAKNTVYLQMNSLKPEDTAVYYCAAATGQSYVPIREYEYVYWGQGTQVTVSRSGPPCPPCPAPEFLGGPSVFLFPPKPKDTLMISRTPEVTCVVVDVSQEDPEVQFNWYVDGVEVHNAKTKPREEQFNSTYRVVSVLTVLHQDWLNGKEYKCKVSNKGLPSSIEKTISKAKGQPREPQVYTLPPCQEEMTKNQVSLWCLVKGFYPSDIAVEWESNGQPENNYKTTPPVLDSDGSFFLYSRLTVDKSRWQEGNVFSCSVMHEALHNHYTQKSLSLSLGK
# chain 2: EVQLLESGGGLVQPGGSLRLSCAASGFTFGNYDMAWVRQAPGKRPEWVSSIDTGGDITHYADSVKGRFTISRDNAKNTLYLQMNSLRPEDTAVYWCATDEEYALGPNEFDYYGQGTLVTVSSRSGPPCPPCPAPEFLGGPSVFLFPPKPKDTLMISRTPEVTCVVVDVSQEDPEVQFNWYVDGVEVHNAKTKPREEQFNSTYRVVSVLTVLHQDWLNGKEYKCKVSNKGLPSSIEKTISKAKGQPREPQVCTLPPSQEEMTKNQVSLSCAVKGFYPSDIAVEWESNGQPENNYKTTPPVLDSDGSFFLVSRLTVDKSRWQEGNVFSCSVMHEALHNHYTQKSLSLSLGK
# B4: CIgG4E1A1(G4S)2 (Fc fusion)
# chain 1: GPPCPPCPAPEFLGGPSVFLFPPKPKDTLMISRTPEVTCVVVDVSQEDPEVQFNWYVDGVEVHNAKTKPREEQFNSTYRVVSVLTVLHQDWLNGKEYKCKVSNKGLPSSIEKTISKAKGQPREPQVYTLPPCQEEMTKNQVSLWCLVKGFYPSDIAVEWESNGQPENNYKTTPPVLDSDGSFFLYSRLTVDKSRWQEGNVFSCSVMHEALHNHYTQKSLSLSLGKGGGGSGGGGSDVQLQESGGGLVQAGGSLRLSCLASGRTFTTTSGYNMGWFRQAPGKEREFVAGIKWVSGSNRAYAESVKGRFTISRDNAKNTVYLQMNSLKPEDTAVYYCAAATGQSYVPIREYEYVYWGQGTQVTVS
# chain 2: GPPCPPCPAPEFLGGPSVFLFPPKPKDTLMISRTPEVTCVVVDVSQEDPEVQFNWYVDGVEVHNAKTKPREEQFNSTYRVVSVLTVLHQDWLNGKEYKCKVSNKGLPSSIEKTISKAKGQPREPQVCTLPPSQEEMTKNQVSLSCAVKGFYPSDIAVEWESNGQPENNYKTTPPVLDSDGSFFLVSRLTVDKSRWQEGNVFSCSVMHEALHNHYTQKSLSLSLGKGGGGSGGGGSEVQLLESGGGLVQPGGSLRLSCAASGFTFGNYDMAWVRQAPGKRPEWVSSIDTGGDITHYADSVKGRFTISRDNAKNTLYLQMNSLRPEDTAVYWCATDEEYALGPNEFDYYGQGTLVTVSS
# B5: NIgG4E1A1(G4S)1 (Fc fusion)
# chain 1: DVQLQESGGGLVQAGGSLRLSCLASGRTFTTTSGYNMGWFRQAPGKEREFVAGIKWVSGSNRAYAESVKGRFTISRDNAKNTVYLQMNSLKPEDTAVYYCAAATGQSYVPIREYEYVYWGQGTQVTVSGGGGSGPPCPPCPAPEFLGGPSVFLFPPKPKDTLMISRTPEVTCVVVDVSQEDPEVQFNWYVDGVEVHNAKTKPREEQFNSTYRVVSVLTVLHQDWLNGKEYKCKVSNKGLPSSIEKTISKAKGQPREPQVYTLPPCQEEMTKNQVSLWCLVKGFYPSDIAVEWESNGQPENNYKTTPPVLDSDGSFFLYSRLTVDKSRWQEGNVFSCSVMHEALHNHYTQKSLSLSLGK
# chain 2: EVQLLESGGGLVQPGGSLRLSCAASGFTFGNYDMAWVRQAPGKRPEWVSSIDTGGDITHYADSVKGRFTISRDNAKNTLYLQMNSLRPEDTAVYWCATDEEYALGPNEFDYYGQGTLVTVSSGGGGSGPPCPPCPAPEFLGGPSVFLFPPKPKDTLMISRTPEVTCVVVDVSQEDPEVQFNWYVDGVEVHNAKTKPREEQFNSTYRVVSVLTVLHQDWLNGKEYKCKVSNKGLPSSIEKTISKAKGQPREPQVCTLPPSQEEMTKNQVSLSCAVKGFYPSDIAVEWESNGQPENNYKTTPPVLDSDGSFFLVSRLTVDKSRWQEGNVFSCSVMHEALHNHYTQKSLSLSLGK
# B6: NIgG4E1A1(G4S)2 (Fc fusion)
# chain 1: DVQLQESGGGLVQAGGSLRLSCLASGRTFTTTSGYNMGWFRQAPGKEREFVAGIKWVSGSNRAYAESVKGRFTISRDNAKNTVYLQMNSLKPEDTAVYYCAAATGQSYVPIREYEYVYWGQGTQVTVSGGGGSGGGGSGPPCPPCPAPEFLGGPSVFLFPPKPKDTLMISRTPEVTCVVVDVSQEDPEVQFNWYVDGVEVHNAKTKPREEQFNSTYRVVSVLTVLHQDWLNGKEYKCKVSNKGLPSSIEKTISKAKGQPREPQVYTLPPCQEEMTKNQVSLWCLVKGFYPSDIAVEWESNGQPENNYKTTPPVLDSDGSFFLYSRLTVDKSRWQEGNVFSCSVMHEALHNHYTQKSLSLSLGK
# chain 2: EVQLLESGGGLVQPGGSLRLSCAASGFTFGNYDMAWVRQAPGKRPEWVSSIDTGGDITHYADSVKGRFTISRDNAKNTLYLQMNSLRPEDTAVYWCATDEEYALGPNEFDYYGQGTLVTVSSGGGGSGGGGSGPPCPPCPAPEFLGGPSVFLFPPKPKDTLMISRTPEVTCVVVDVSQEDPEVQFNWYVDGVEVHNAKTKPREEQFNSTYRVVSVLTVLHQDWLNGKEYKCKVSNKGLPSSIEKTISKAKGQPREPQVCTLPPSQEEMTKNQVSLSCAVKGFYPSDIAVEWESNGQPENNYKTTPPVLDSDGSFFLVSRLTVDKSRWQEGNVFSCSVMHEALHNHYTQKSLSLSLGK
# B7: CIgG4E1A1(G4S)3 (Fc fusion)
# chain 1: GPPCPPCPAPEFLGGPSVFLFPPKPKDTLMISRTPEVTCVVVDVSQEDPEVQFNWYVDGVEVHNAKTKPREEQFNSTYRVVSVLTVLHQDWLNGKEYKCKVSNKGLPSSIEKTISKAKGQPREPQVYTLPPCQEEMTKNQVSLWCLVKGFYPSDIAVEWESNGQPENNYKTTPPVLDSDGSFFLYSRLTVDKSRWQEGNVFSCSVMHEALHNHYTQKSLSLSLGKGGGGSGGGGSGGGGSDVQLQESGGGLVQAGGSLRLSCLASGRTFTTTSGYNMGWFRQAPGKEREFVAGIKWVSGSNRAYAESVKGRFTISRDNAKNTVYLQMNSLKPEDTAVYYCAAATGQSYVPIREYEYVYWGQGTQVTVS
# chain 2: GPPCPPCPAPEFLGGPSVFLFPPKPKDTLMISRTPEVTCVVVDVSQEDPEVQFNWYVDGVEVHNAKTKPREEQFNSTYRVVSVLTVLHQDWLNGKEYKCKVSNKGLPSSIEKTISKAKGQPREPQVCTLPPSQEEMTKNQVSLSCAVKGFYPSDIAVEWESNGQPENNYKTTPPVLDSDGSFFLVSRLTVDKSRWQEGNVFSCSVMHEALHNHYTQKSLSLSLGKGGGGSGGGGSGGGGSEVQLLESGGGLVQPGGSLRLSCAASGFTFGNYDMAWVRQAPGKRPEWVSSIDTGGDITHYADSVKGRFTISRDNAKNTLYLQMNSLRPEDTAVYWCATDEEYALGPNEFDYYGQGTLVTVSS
# B8: CIgG4E1A1(RS) (Fc fusion)
# chain 1: GPPCPPCPAPEFLGGPSVFLFPPKPKDTLMISRTPEVTCVVVDVSQEDPEVQFNWYVDGVEVHNAKTKPREEQFNSTYRVVSVLTVLHQDWLNGKEYKCKVSNKGLPSSIEKTISKAKGQPREPQVYTLPPCQEEMTKNQVSLWCLVKGFYPSDIAVEWESNGQPENNYKTTPPVLDSDGSFFLYSRLTVDKSRWQEGNVFSCSVMHEALHNHYTQKSLSLSLGKRSDVQLQESGGGLVQAGGSLRLSCLASGRTFTTTSGYNMGWFRQAPGKEREFVAGIKWVSGSNRAYAESVKGRFTISRDNAKNTVYLQMNSLKPEDTAVYYCAAATGQSYVPIREYEYVYWGQGTQVTVS
# chain 2: GPPCPPCPAPEFLGGPSVFLFPPKPKDTLMISRTPEVTCVVVDVSQEDPEVQFNWYVDGVEVHNAKTKPREEQFNSTYRVVSVLTVLHQDWLNGKEYKCKVSNKGLPSSIEKTISKAKGQPREPQVCTLPPSQEEMTKNQVSLSCAVKGFYPSDIAVEWESNGQPENNYKTTPPVLDSDGSFFLVSRLTVDKSRWQEGNVFSCSVMHEALHNHYTQKSLSLSLGKRSEVQLLESGGGLVQPGGSLRLSCAASGFTFGNYDMAWVRQAPGKRPEWVSSIDTGGDITHYADSVKGRFTISRDNAKNTLYLQMNSLRPEDTAVYWCATDEEYALGPNEFDYYGQGTLVTVSS
# Target: T1, recombinant human IgE (human, UniProt P01854-1 1-428)
# T1 construct: made in-house (ALK); preloaded on immobilised FcεRIα in the displacement ELISA
# Test: IgE-FcεRIα displacement ELISA
# Summary of the method: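 sdAbs at pM–μM were incubated 1 h on preformed complexes of 13 ng/ml recombinant human IgE with avi-tag-biotinylated human FcεRIα captured on streptavidin.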
# T1 sequence (P01854 other isoform, or with tags, fused parts or gaps): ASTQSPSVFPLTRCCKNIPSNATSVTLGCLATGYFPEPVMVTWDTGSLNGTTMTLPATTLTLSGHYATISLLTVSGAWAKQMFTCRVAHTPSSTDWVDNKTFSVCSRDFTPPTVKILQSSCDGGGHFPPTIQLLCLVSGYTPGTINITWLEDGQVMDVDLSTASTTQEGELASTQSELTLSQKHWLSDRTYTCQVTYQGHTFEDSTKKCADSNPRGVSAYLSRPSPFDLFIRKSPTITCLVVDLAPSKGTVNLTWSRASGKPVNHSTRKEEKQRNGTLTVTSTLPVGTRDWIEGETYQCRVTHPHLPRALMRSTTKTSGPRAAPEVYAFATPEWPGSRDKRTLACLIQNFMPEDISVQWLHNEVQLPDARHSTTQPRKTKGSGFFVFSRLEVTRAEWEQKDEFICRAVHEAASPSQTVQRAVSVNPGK
EC50 [nM],Max effect [%],Binder
30,> 95,B1
,> 95,B2
,> 95,B3
10,> 95,B4
,> 95,B5
,> 95,B6
9,> 95,B7
480,65,B8
